Measured values taken from US7265263B1, “Potato transcription factors, methods of use thereof, and a method for enhancing tuber development” (Iowa State University Research Foundation, Inc., priority 2002, dated 2007).

How the values were obtained:
ga20ox1 promoter = experiment: Transcription assay, GUS reporter driven by ga20ox1 promoter in tobacco protoplasts; type: cell-based, potato
Excerpt: The cauliflower mosaic virus (CaMV) 35S promoter in pBI221 (Clontech, Palo Alto, Calif.) was replaced by an enhancer fragment (-832 to -50) of the 35S promoter plus 980 bp of the ga20ox1 promoter to generate the pGAOP::β-glucuronidase (GUS) reporter construct. With this construct, the reporter GUS transcription level is augmented but its transcription may still be affected by the ga20ox1 promoter. A CaMV 35S promoter-driven luciferase (LUC) construct 35S-LUC (obtained from Dr. Takahashi, Dept. of Biological Sciences, Graduate School of Science, Univ. of Tokyo, Japan) was used as an internal control. Effector constructs were also generated by using pBI221 vector as a backbone, with the GUS gene replaced by the full-length cDNAs of either StBEL-05 or POTH1, downstream of the CaMV 35S promoter. Truncated cDNAs that encode the N-terminal protein-binding domains of StBEL-05 or POTH1 were used to generate the dominant negative constructs, StBEL5ΔC295 and POTH1ΔC122, respectively. The reporter construct with the mutated promoter was generated by site-directed PCR mutagenesis with oligos 5′-CTATTTGACTTC*ACACGGTTATTT-3′ (SEQ ID NO:23) and 5′-AAATAACCGTGTG*AAGTCAAATAG-3′ (SEQ ID NO:24).
Fully expanded leaves from three- to four-week-old tobacco plants were excised and placed in K3 basal media (Kao et al., “Nutritional Requirements for Growth of Vicia hajastana Cells and Protoplasts at a Very Low Density in Liquid Media,” Planta 126:105-110 (1975), which is hereby incorporated by reference in its entirety) supplemented with 0.4 M sucrose, 0.25% (w-v) cellulases (Karlan Research Products, Santa Rosa, CA), and 0.05% (w-v) macerases (Calbiochem, La Jolla, Calif.) and incubated for overnight at 28° C. After incubation, the liberated protoplasts were filtered through sterile cheesecloth into a Babcock bottle, and centrifuged for 10 minutes at 1000 rpm. Protoplasts were collected from the bottleneck area and washed once in K3 media with 0.4 M sucrose and resuspended in K3 media containing 0.4 M glucose to a final concentration of 4×10^6 protoplasts per milliliter. […]
(§1) Luciferase assays were performed by injecting 100-μL luciferase substrate (Promega, Madison, Wis.) into 20 μL of extract and measuring the emitted photons for 15 seconds in a TD-20 luminometer (Turner Designs, Sunnyvale, Calif.). […] A fluorescence multiwell plate reader, Fluoroskan II (MTX labs, Vienna, Va.), was used to measure GUS activity at 365 nm (excitation) and 455 nm (emission). Each sample was measured three times for both LUC and GUS activity. Relative GUS-LUC activity was calculated by dividing the ratio of GUS activity to LUC activity from different effectors with the ratio from reporter plasmid alone. Relative activities calculated from three transfection replications were presented as a mean±SE.

CaMV 35S promoter = experiment: Transcription assay, GUS reporter driven by CaMV 35S promoter in tobacco protoplasts; type: cell-based, cauliflower mosaic virus
Description: FIGS. 24A-C show schematics of constructs (FIG. 24A) and the repression effect of StBEL-05 and POTH1 on the ga20ox1 promoter (FIG. 24B) and on the 35S CaMV promoter (FIG. 24C). The construct with the LUC gene under the control of the cauliflower mosaic virus (CaMV) 35S promoter was used as an internal control. Each transfection was performed three times. Relative GUS-LUC activity was calculated with reporter alone set as 100%. Data are means±SE.
For each transfection analysis, 700 μL of tobacco protoplasts (prepared as described above) were mixed with 30 μL 2 M KCl and plasmid DNA in an electroporation cuvette with 0.4-cm electrode gap. […]
as §1

[1] = tested on: potato ga20ox1 promoter (P1, P2, P3) and first intron; experiment: Gel retardation assay with ga20ox1 promoter regions and first intron; type: binding
Excerpt: The first intron with partial flanking exon sequence (450 bp) of potato ga20ox1 and its promoter (981 bp, provided by Dr. Salomé Prat, CSIC Cantoblanco Campus, Univ. of Madrid, Spain) were used for gel mobility shift assays. Polymerase chain reaction (PCR) was used to amplify three regions of the promoter: -981 to 636 (P1), -660 to 307 (P2), and -331 to 0 (P3). About a 25-bp overlap was maintained between P1 and P2 or P2 and P3 in the chance that the protein-binding site would span the overlapped region. The first intron of this gene was amplified from potato genomic DNA by using PCR and the oligos 5′-[…]-3′ (SEQ ID NO:21) and 5′-[…]-3′ (SEQ ID NO:22) as primers. These primers were designed based on the site of the first intron of the tobacco GA20 oxidase gene Ntc12. The four fragments were purified on a 1.4% agarose gel and labeled with α^32P-dATP using Klenow fragment. […]
In the competition assays, unlabeled double-stranded DNA fragments (10×, 25×, 50×, 100×) were incubated with the recombinant protein before the addition of the radioactive probe. The dissociation rates were determined by adding 500-fold more cold DNA fragments to the DNA-binding reactions that were being incubated on ice, and loaded onto the running gel every 10 minutes. […]

POTH1 = experiment: In vitro binding assay (immunoprecipitation) with POTH1; design: species or system Solanum tuberosum; conditions: in vitro
Description: In vitro binding experiments were performed as described by Ni et al., “PIF3, a Phytochrome-Interacting Factor Necessary for Normal Photoinduced Signal Transduction, is a Novel Basic Helix-Loop-Helix Protein,” Cell 95:657-667 (1998), which is hereby incorporated by reference in its entirety. The full-length sequence for POTH1 was cloned into a pET17b/GAD fusion cassette and transcribed under the control of the T7 promoter. […] Each 50 μl TnT reaction contained 2.0 μg of template plasmid DNA and 20 μmol (20 μCi) of labeled ^35S-methionine. The POTH1:GAD/BEL complex was immunoprecipitated with anti-GAD antibodies (Santa Cruz Biotechnology, Calif.). The proteins from the pellet (one-half the fraction) and for the prey (one-fourth of the reaction volume) were resolved on a 10% SDS-PAGE gel and visualized by autoradiography.

B1: POTH1: KNOX transcription factor of potato, SEQ ID NO:17, 345 residues (protein, listed as Solanum tuberosum)
chain: MDDEMYGFHSTRDDYADKALMSPENLMMQTEYNNFHNYTNSSILTSNPMMFGSDDIQLSSEQTNSFSTMTLQNNDNIYQIRSGNCGGGSGSGGSSKDHNDNNNNNEDYDEDGSNVIKAKIVSHPYYPKLLNAYIDCQKVGAPAGIVNLLEEIRQQTDFRKPNATSICIGADPELDEFMETYCDILLKYKSDLSRPFDEATTFLNKIEMQLGNLCKDDGGVSSDEELSCGEADASMRSEDNELKDRLLRKFGSHLSSLKLEFSKKKKKGKLPKEARQMLLAWWDDHFRWPYPTEADKNSLAESTGLDPKQINNWFINQRKRHWKPSENMQLAVMDNLSSQFFSSDD
- relative GUS-LUC activity of the pGAOP::GUS reporter construct (ga20ox1 promoter; co-transfected effector, reporter alone = 100%): decreased by more than half
- repression of promoter activity, reporter with point mutation in the binding site (ga20ox1 promoter; mutated ga20ox1 promoter): no detectable repression
- effect on the activity of the CaMV 35S promoter (CaMV 35S promoter): Neither StBEL-05 nor POTH1 showed any effect
- binding to ga20ox1 regulatory regions (mobility shift) [1]: only formed a complex with P1
- homodimer formation (POTH1): did not form homodimers in vitro
